# Data: patent publication US20240150490A1 (MABPRO A S, published 2024)
# Positions count from the first letter of the chain named.
# B1: CA9hu-2_HC1LC5 (antibody, V domains shown)
# VH: EVQLVESGGGLVQPGGSLKLSCAASGFTFNTNAMHWVRQASGKGLEWVGRIRSKSNNYTTYYADSVKDRFTISRDDSKNTAYLQMNSLKTEDTAVYYCVCGSWFAYWGQGTLVTVSS
# VL: DIVMTQSPDSLAVSLGERATINCKSSQSLLNSSNQKNYLAWYQQKPGQPPKLLIYFTSTRQSGVPDRFSGSGSGTDFTLTISSLQAEDVAVYYCQQHYSIPLTFGQGTKLEIK
# notes: Humanized from murine IV/18; also called HC1LC5 (CA9hu-2)
# B2: CA9hu-2_HC1LC1 (antibody, V domains shown)
# VH: B1 VH
# VL: B1 VL with I2V, A19V, P49S
# notes: Humanized from murine IV/18; also called HC1LC1 (CA9hu-2)
# B3: CA9hu-2_HC1LC2 (antibody, V domains shown)
# VH: B1 VH
# VL: B1 VL with Y42F, K51N, L53V, S82N, Y93F, K109Q, L110V
# notes: Humanized from murine IV/18; also called HC1LC2 (CA9hu-2)
# B4: CA9hu-2_HC1LC3 (antibody, V domains shown)
# VH: B1 VH
# VL: B1 VL with V3Q, Y93F, L110V
# notes: Humanized from murine IV/18; also called HC1LC3 (CA9hu-2)
# B5: CA9hu-2_HC1LC4 (antibody, V domains shown)
# VH: B1 VH
# VL: B1 VL with Y42F, L52V, S69T
# notes: Humanized from murine IV/18; also called HC1LC4 (CA9hu-2)
# B6: CA9hu-2_HC2LC1 (antibody, V domains shown)
# VH: B1 VH with N79S
# VL: B1 VL with I2V, A19V, P49S
# notes: Humanized from murine IV/18; also called HC2LC1 (CA9hu-2)
# B7: CA9hu-2_HC2LC2 (antibody, V domains shown)
# VH: B1 VH with N79S
# VL: B1 VL with Y42F, K51N, L53V, S82N, Y93F, K109Q, L110V
# notes: Humanized from murine IV/18; also called HC2LC2 (CA9hu-2)
# B8: CA9hu-2_HC2LC3 (antibody, V domains shown)
# VH: B1 VH with N79S
# VL: B1 VL with V3Q, Y93F, L110V
# notes: Humanized from murine IV/18; also called HC2LC3 (CA9hu-2)
# B9: CA9hu-2_HC2LC4 (antibody, V domains shown)
# VH: B1 VH with N79S
# VL: B1 VL with Y42F, L52V, S69T
# notes: Humanized from murine IV/18; also called HC2LC4 (CA9hu-2)
# B10: CA9hu-2_HC2LC5 (antibody, V domains shown)
# VH: B1 VH with N79S
# VL: B1 VL
# notes: Humanized from murine IV/18; also called HC2LC5 (CA9hu-2)
# B11: CA9hu-2_HC3LC5 (antibody, V domains shown)
# VH: QVQLVESGGGVVQPGGSLRLSCAASGFTFNTNAMHWVRQAPGRGLEWVARIRSKSNNYTTYYADSVKDRFTISRDNSKNTLYLQVNSLRAEDTAVYYCVCGSWFAYWGQGTLVTVSS
# VL: B1 VL
# notes: Humanized from murine IV/18; also called HC3LC5 (CA9hu-2)
# B12: CA9hu-2_HC4LC1 (antibody, V domains shown)
# VH: B11 VH with Q1E, G16R, R43K, V85M
# VL: B1 VL with I2V, A19V, P49S
# notes: Humanized from murine IV/18; also called HC4LC1 (CA9hu-2)
# B13: CA9hu-2_HC4LC3 (antibody, V domains shown)
# VH: B11 VH with Q1E, G16R, R43K, V85M
# VL: B1 VL with V3Q, Y93F, L110V
# notes: Humanized from murine IV/18; also called HC4LC3 (CA9hu-2)
# B14: CA9hu-2_HC4LC4 (antibody, V domains shown)
# VH: B11 VH with Q1E, G16R, R43K, V85M
# VL: B1 VL with Y42F, L52V, S69T
# notes: Humanized from murine IV/18; also called HC4LC4 (CA9hu-2)
# B15: CA9hu-2_HC4LC5 (antibody, V domains shown)
# VH: B11 VH with Q1E, G16R, R43K, V85M
# VL: B1 VL
# notes: Humanized from murine IV/18; also called HC4LC5 (CA9hu-2)
# B16: CA9hu-2_HC5LC1 (antibody, V domains shown)
# VH: B1 VH with L112T
# VL: B1 VL with I2V, A19V, P49S
# notes: Humanized from murine IV/18; also called HC5LC1 (CA9hu-2)
# B17: CA9hu-2_HC5LC2 (antibody, V domains shown)
# VH: B1 VH with L112T
# VL: B1 VL with Y42F, K51N, L53V, S82N, Y93F, K109Q, L110V
# notes: Humanized from murine IV/18; also called HC5LC2 (CA9hu-2)
# B18: CA9hu-2_HC5LC3 (antibody, V domains shown)
# VH: B1 VH with L112T
# VL: B1 VL with V3Q, Y93F, L110V
# notes: Humanized from murine IV/18; also called HC5LC3 (CA9hu-2)
# B19: CA9hu-2_HC5LC4 (antibody, V domains shown)
# VH: B1 VH with L112T
# VL: B1 VL with Y42F, L52V, S69T
# notes: Humanized from murine IV/18; also called HC5LC4 (CA9hu-2)
# B20: CA9hu-2_HC5LC5 (antibody, V domains shown)
# VH: B1 VH with L112T
# VL: B1 VL
# notes: Humanized from murine IV/18; also called HC5LC5 (CA9hu-2)
# B21: CA9hu-2_HC3LC1 (antibody, V domains shown)
# VH: B11 VH
# VL: B1 VL with I2V, A19V, P49S
# notes: Humanized from murine IV/18; also called HC3LC1 (CA9hu-2)
# B22: CA9hu-2_HC3LC2 (antibody, V domains shown)
# VH: B11 VH
# VL: B1 VL with Y42F, K51N, L53V, S82N, Y93F, K109Q, L110V
# notes: Humanized from murine IV/18; also called HC3LC2 (CA9hu-2)
# B23: CA9hu-2_HC3LC3 (antibody, V domains shown)
# VH: B11 VH
# VL: B1 VL with V3Q, Y93F, L110V
# notes: Humanized from murine IV/18; also called HC3LC3 (CA9hu-2)
# B24: CA9hu-2_HC3LC4 (antibody, V domains shown)
# VH: B11 VH
# VL: B1 VL with Y42F, L52V, S69T
# notes: Humanized from murine IV/18; also called HC3LC4 (CA9hu-2)
# B25: CA9hu-2_HC4LC2 (antibody, V domains shown)
# VH: B11 VH with Q1E, G16R, R43K, V85M
# VL: B1 VL with Y42F, K51N, L53V, S82N, Y93F, K109Q, L110V
# notes: Humanized from murine IV/18; also called HC4LC2 (CA9hu-2)
# B26: CA9hu-2 chimeric HC0LC0 (antibody, V domains shown)
# VH: EVQLVETGGGLVQPKGSLKLSCAASGFTFNTNAMHWVRQAPGKGLEWVARIRSKSNNYTTYYADSVKDRFTISRDDSQSMLYLQMNNLKTEDTAMYYCVCGSWFAYWGQGTLVTVSA
# VL: DIVMTQSPSSLAMSLGQKVTMSCKSSQSLLNSSNQKNYLAWFQQKPGQSPKLLVYFTSTRQSGVPDRFIGSGSGTDFTLTISSVQAEDLADYFCQQHYSIPLTFGAGTKLELK
# notes: also called HC0LC0 (CA9hu-2)
# B27: CA9hu-1_HC5LC3 (antibody, V domains shown)
# VH: EVQLVESGGGLVQPGGSLRLSCAASGFTFTDYYMHWVRQAPGKGLEWVGFIRNKASGYTPQYSASVKGRFTISRDDSKNSLYLQMNSLKTEDTAVYYCVRGGHAGSNYWYFDVWGQGTMVTVSS
# VL: DIQMTQSPSSLSASVGDRVTITCHVSQNINVWLSWYQQKPGEAPKLLIYQASNLHTGVPSRFSGSGSGTDFTLTISSLQPEDFATYYCQQGQSYPFTFGQGTKLEIK
# notes: Humanized from murine VII/20; also called HC5LC3 (CA9hu-1)
# B28: CA9hu-1_HC1LC1 (antibody, V domains shown)
# VH: B27 VH with G49A, T90I, M119T
# VL: B27 VL with E42K, K45N, D70H, F83I, Q100G, L104V
# notes: Humanized from murine VII/20; also called HC1LC1 (CA9hu-1)
# B29: CA9hu-1_HC1LC2 (antibody, V domains shown)
# VH: B27 VH with G49A, T90I, M119T
# VL: B27 VL with S10T, E42N, D70E, S76G, E81D, A84V, L104V
# notes: Humanized from murine VII/20; also called HC1LC2 (CA9hu-1)
# B30: CA9hu-1_HC1LC3 (antibody, V domains shown)
# VH: B27 VH with G49A, T90I, M119T
# VL: B27 VL
# notes: Humanized from murine VII/20; also called HC1LC3 (CA9hu-1)
# B31: CA9hu-1_HC1LC4 (antibody, V domains shown)
# VH: B27 VH with G49A, T90I, M119T
# VL: B27 VL with T22N, D70G, S76R, F83Y
# notes: Humanized from murine VII/20; also called HC1LC4 (CA9hu-1)
# B32: CA9hu-1_HC1LC5 (antibody, V domains shown)
# VH: B27 VH with G49A, T90I, M119T
# VL: B27 VL with E42K, L73F, F83I
# notes: Humanized from murine VII/20; also called HC1LC5 (CA9hu-1)
# B33: CA9hu-1_HC2LC1 (antibody, V domains shown)
# VH: B27 VH with Q3R, V48L, K78T, V95I, M119L
# VL: B27 VL with E42K, K45N, D70H, F83I, Q100G, L104V
# notes: Humanized from murine VII/20; also called HC2LC1 (CA9hu-1)
# B34: CA9hu-1_HC2LC2 (antibody, V domains shown)
# VH: B27 VH with Q3R, V48L, K78T, V95I, M119L
# VL: B27 VL with S10T, E42N, D70E, S76G, E81D, A84V, L104V
# notes: Humanized from murine VII/20; also called HC2LC2 (CA9hu-1)
# Target: T1, recombinant human CA IX (human, UniProt Q16790 38-414)
# Test: SPR (Biacore T200), antibody captured on CM5 chip, rh CA IX in flow, 25 C
# Protocol: (§1) In order to determinate the antigen-binding affinity of humanized variants, measurements of affinity constant (KD) for antibodies binding to CA IX were performed by SPR using a Biacore 2000 (T200 in case of CA9hu-2) instrument (GE Healthcare, Piscataway, NJ USA). Each humanized antibody variant was captured on the CM5 sensor chip and recombinant human CA IX (rh CA IX; 42 kDa; R&D Systems, Inc., Minneapolis MN, USA) protein as an antigen was added to the buffer flowing over the chip. The setting details of quantitative interaction analysis between humanized antibodies and rh CA IX were as follows: flow rate 30 μl/min; analysis temperature 25° C.; analysis buffer (10mM HEPES pH 7.4, 150 mM NaCl, […], 0.05% Tween 20). Results from SPR analysis are expressed as the equilibrium dissociation constant (KD) (Table 7).
row,Binder,Kd
1,B1,71.3 nM
2,B2,44 nM
3,B3,56.1 nM
4,B4,70.5 nM
5,B5,74.9 nM
6,B6,53.9 nM
7,B7,87.7 nM
8,B8,98.3 nM
9,B9,60.1 nM
10,B10,60.5 nM
11,B11,54.3 nM
12,B12,39.6 nM
13,B13,44.2 nM
14,B14,74.6 nM
15,B15,41.9 nM
16,B16,69.8 nM
17,B17,105 nM
18,B18,57.2 nM
19,B19,47.3 nM
20,B20,65.1 nM
21,B21,37.4 nM
22,B22,40.1 nM
23,B23,62.3 nM
24,B24,73.1 nM
25,B25,32.7 nM
26,B26,13.1 nM

# Target: CA IX expressed by cells (C-33a_CA IX transfectants; hypoxic BT-20, JIMT-1, 8-MG-BA and 42-MG-BA cells) (human, UniProt Q16790 38-459)
# Test: cell-based or functional assay
row,Binder,"ADCC reporter luminescence, C-33a_CA IX against C-33a_neo cells"
1,B1,2 times
2,B2,2 times
3,B3,2 times
4,B4,2 times
5,B5,2 times
6,B6,2 times
7,B7,2 times
8,B8,2 times
9,B9,2 times
10,B10,2 times
11,B11,2 times
12,B12,2 times
13,B13,2 times
14,B14,2 times
15,B15,2 times
16,B16,2 times
17,B17,2 times
18,B18,2 times
19,B19,2 times
20,B20,2 times
21,B21,2 times
22,B22,2 times
23,B23,2 times
24,B24,2 times
25,B25,2 times

# Target: T1, recombinant human CA IX
# Test: SPR (Biacore 2000), antibody captured on CM5 chip, rh CA IX in flow, 25 C
# Protocol: as §1
row,Binder,Kd
1,B27,56 nM
2,B28,97 nM
3,B29,80 nM
4,B30,96 nM
5,B31,100 nM
6,B32,96 nM
7,B33,60 nM
8,B34,53 nM
